± gives the half width of the 95% confidence interval.
What was measured:
[1] = folding stability dG unfold from trypsin proteolysis; higher = more stable
In short: (§1)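 Designed mini-proteins (under 80 residues, no cysteine) in a PA-tagged cDNA display construct were digested with trypsin and chymotrypsin. Each protease was used at 11 concentrations (threefold dilutions) plus a no-protease condition, followed by sequencing. K50 was inferred by Bayesian fitting of sequencing counts, and unfolding free energy was derived against a sequence-predicted unfolded-state K50 and a shared folded-state K50, per protease or combined. Only designs with AlphaFold2 dimer inter-PAE above 15 were kept.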

[2] = folding stability dG unfold from chymotrypsin proteolysis; higher = more stable
In short: as §1

[3] = folding stability dG unfold (combined trypsin and chymotrypsin); higher = more stable
In short: as §1

Sequence | folding stability dG unfold [1] | folding stability dG unfold [2] | folding stability dG unfold [3]
SDDPKDKKKPKPEITMVPIVFKIPPGDELKIEEDPNGMIEVRVPNGHWIRVWILVNPDGNILNVMIEPWPSA [r9_1195_TrROS] | 2.01 ± 0.15 kcal/mol | 3.21 ± 0.066 kcal/mol | 2.82 ± 0.23 kcal/mol
SADPSRGMTLTVETKELPGKGLLLVTITTSGTVEEALAYVEELAKELGAEIEILEVNENTIVVKLKVLKSAG [r14_172_JUSTAS] | 1.97 ± 0.026 kcal/mol | 2.766 ± 0.014 kcal/mol | 2.49 ± 0.045 kcal/mol
SAGGSAGGSAGMKITVTITTTTTVSVEPPESSAAVGPVVYRQTLTLNLSPEEAAALLKKSSAGGSAGGSAGG [r17_283_JUSTAS] | 1.17 ± 0.035 kcal/mol | 1.16 ± 0.14 kcal/mol | 1.25 ± 0.11 kcal/mol
SAGGSAETIEIEIKVKTEEEREKLKEALKKIPSIKEVKELPDGTIKITVSKENLDKIKEALKKAGVSAGGSA [r15_834_TrROS_Hall] | 3.37 ± 0.34 kcal/mol | 2.25 ± 0.24 kcal/mol | 3.31 ± 0.65 kcal/mol
SAGAAPVGARLVKVEPLPGDGPFVLVEVTPPDGKPGFILVPWEFFESGYLKNATAADIAKRFPFAKPASAGG [r19_74_TrMRF] | 0.513 ± 0.019 kcal/mol | 1.85 ± 0.028 kcal/mol | 1.49 ± 0.056 kcal/mol
SAGGSAGGSATIYIIMPPDDPIPPNMPIRLPDGKPVRIDVEPVPLEEDGGPIFRIEVEPGATSAGGSAGGSA [r18_476_TrROS] | -0.181 ± 0.12 kcal/mol | 0.0617 ± 0.21 kcal/mol | -0.03 ± 0.16 kcal/mol
SAGGSAGGSAGKPIPYRITLETETTRAVFTIPADVPLEKVVEIAREIRELYPAPFSIEPSSAGGSAGGSAGG [r11_515_TrMRF] | 0.14 ± 0.21 kcal/mol | -0.00667 ± 0.43 kcal/mol | 0.197 ± 0.21 kcal/mol
SAGGSAGGSAGMPLKVTVLSTSPLLESSELVTVKITPPDGSVVVIPSSVSLEEVEKLLLSSAGGSAGGSAGG [r17_353_JUSTAS] | 0.784 ± 0.024 kcal/mol | 0.05 ± 0.07 kcal/mol | 0.558 ± 0.051 kcal/mol
SAGGSAGGSAGKIIEELKKKGYKVEVIKDKKTKKYYVKITVTDKKGNKKTITIPLKDIKPSAGGSAGGSAGG [r17_311_TrROS_Hall] | 2.8 ± 0.23 kcal/mol | 4 ± 0.21 kcal/mol | 3.71 ± 0.35 kcal/mol
SAGMNKIYRLNEPVKNITFSSSELENLFKDPNIDRIAVFHPDKPAIIPFPDGKISGEFPPNITIVLFGSAGG [r19_152_TrMRF] | 0.661 ± 0.15 kcal/mol | -0.0733 ± 0.5 kcal/mol | 0.385 ± 0.2 kcal/mol
SAGGSAGGSAGGWYVQIKFPNNPIYISAEEIRDNPEVLKELEDEGYPIKNIEVMKPGEGSAGGSAGGSAGGS [r10_396_TrROS] | 0.526 ± 0.082 kcal/mol | -0.5 ± 0.29 kcal/mol | 0.241 ± 0.14 kcal/mol
SAMLSPAEIKRPRLLEIIETIKKLGNFSVDIKRLPGDGDVKVKIELDPNKIEEAAKITGIPLSEIKKLVSAG [r14_688_JUSTAS] | 0.923 ± 0.15 kcal/mol | 0.748 ± 0.1 kcal/mol | 0.673 ± 0.31 kcal/mol
SAGGSAGGSAKIKIKVKPGEKVRIYNKKTKKEIAEVEVVEVKEGKIVVKLKNGKLYEIEIEPSAGGSAGGSA [r18_363_TrROS_Hall] | 1.67 ± 0.033 kcal/mol | 2.36 ± 0.06 kcal/mol | 2.18 ± 0.052 kcal/mol
SAGDWELVELRPFRFPNGLEALVAVYRNPADERLVVLTVVREPEGRLVAVALVEFDGDKLVSESVFSPGSAG [r14_828_TrMRF] | 2.62 ± 0.079 kcal/mol | 3.755 ± 0.025 kcal/mol | 3.4 ± 0.12 kcal/mol
SAEEVTVKLELEIKIKVSEEEAKALAEELARALKEAGEVKITVEPVEKDEDGYYRIRVTIEVKIKKEDLSAG [r14_413_TrROS_Hall] | 3.57 ± 0.12 kcal/mol | 4.24 ± 0.11 kcal/mol | 4.02 ± 0.095 kcal/mol
SAGGSAGGMKPGEEKEITLPDGSKIKVRIKDGKLEIEFENGERKEIEIKPGEKIEIKLPKGVKPSAGGSAGG [r6_970_TrROS_Hall] | 1.4 ± 0.076 kcal/mol | 2.05 ± 0.085 kcal/mol | 1.81 ± 0.083 kcal/mol
SAGGKWIMFMIPPGEEIEDPNGLEIRYDPEEGEFEIENNKRPVKIPVHPHPDGWYMITIEIPPGVEVSAGGS [r16_245_TrROS] | 1.5 ± 0.074 kcal/mol | 1.12 ± 0.23 kcal/mol | 1.55 ± 0.22 kcal/mol
SNIRIEVDPPNGVIRVTYTFPGDSLSDIKDEIVEYIQKLGFPIEVDIDKIEPMNNYWRVTAYIKIPPGAISA [r9_347_TrROS] | 3.21 ± 0.095 kcal/mol | 4.56 ± 0.056 kcal/mol | 4.18 ± 0.086 kcal/mol
SPDPGMKPRPMYMIRIKIEVTTPDGKKRGKHDFIIQSPEEAKEFIEELAENRGMKIKKIDIDIYPMPWLKSA [r9_1226_TrROS] | 1.5 ± 0.044 kcal/mol | 2.56 ± 0.061 kcal/mol | 2.18 ± 0.1 kcal/mol
SPSPAAKNMKPIRIRLRDPNGKKYKIENINVGPDGQFQIRIKFPGNTHTQTLPPGAPFELPPDRIEEVEISA [r9_993_TrROS] | 0.808 ± 0.079 kcal/mol | 0.971 ± 0.2 kcal/mol | 0.959 ± 0.092 kcal/mol
SAGKKIKIVKVEVTYDPETKEVTVKITIYNENGEKIKEIELTYEPGMSEEEVREKAEALVRKLIEEGKLSAG [r5_238_TrROS_Hall] | 2.75 ± 0.15 kcal/mol | 2.24 ± 0.05 kcal/mol | 2.54 ± 0.1 kcal/mol

Sequence | folding stability dG unfold [1] | folding stability dG unfold [2] | folding stability dG unfold [3]
SAGGSAGGSAGAPTGFIRVRVEFVTPDGQPAEADFTVPASLVDAVFRAARETGARVSLEGSAGGSAGGSAGG [r11_603_TrMRF] | 0.504 ± 0.1 kcal/mol | 1.65 ± 0.074 kcal/mol | 1.2 ± 0.068 kcal/mol
SAGGPVTFEAPLEELLKALPPELVRHASVEPLGEGERRFIATVELEDRRIEAYSDPERPGRVLVTLHFSAGG [r13_942_TrMRF] | 0.332 ± 0.11 kcal/mol | 0.688 ± 0.12 kcal/mol | 0.569 ± 0.12 kcal/mol
SAGGSAALPIVEVLETEESSDGTVTILAKLEDGTVVTITVTVEVKPPPPPPPVDPANMSPERLAAVSAGGSA [r15_41_JUSTAS] | 0.998 ± 0.08 kcal/mol | 0.181 ± 0.07 kcal/mol | 0.566 ± 0.19 kcal/mol
SAGSNTIWYPFPLKEIKEAISSGQSMEEIADELSERHGEEVPIEYPNMKIRIYVPEPGPLYVRIEMTPDSAG [r5_343_TrROS] | 0.519 ± 0.2 kcal/mol | 0.907 ± 0.098 kcal/mol | 0.734 ± 0.14 kcal/mol
SAGGMIPVSPEQYKAVEKLLKEGKDGSTVLVKTEDGRYIEIDPAGTARFFGDKPKEFPLEKIKKIIPSAGGS [r16_664_TrMRF] | -0.209 ± 0.13 kcal/mol | 0.469 ± 0.14 kcal/mol | 0.235 ± 0.12 kcal/mol
SAGGSAETTKDPNKPVETISTPGTLIKITKYPDSYNATIEPLDENGNVTGSESGPIKSIEEVLRQLSAGGSA [r15_288_JUSTAS] | -0.615 ± 0.16 kcal/mol | 0.597 ± 0.067 kcal/mol | 0.216 ± 0.12 kcal/mol
SAGGSPPDNFKMEPIPLRFPNGWKITVMVMRNPDDGRPYVSVEIEPPNDGKEVKFMMPADDLKDFISAGGSA [r2_366_TrROS] | 1.5 ± 0.054 kcal/mol | 1.64 ± 0.23 kcal/mol | 1.66 ± 0.19 kcal/mol
SAGGSAGGSAGKLVVVRAIDPENPFVVATTSDNRTYVFDSLEELLEQVPEGVPVLFLPTVSAGGSAGGSAGG [r17_295_TrMRF] | 0.369 ± 0.028 kcal/mol | 1.22 ± 0.071 kcal/mol | 0.933 ± 0.081 kcal/mol
SAGGSAGGSAGGMIVLKDPDPARLEARAEELRAELEAAGRELPPDVEIEVLEAEPDPALLSAGGSAGGSAGG [r7_965_JUSTAS] | -0.194 ± 0.21 kcal/mol | -0.568 ± 0.37 kcal/mol | -0.279 ± 0.29 kcal/mol
SAGGMHHLEIYRFEDRKLVVLHLEDKPVVIEVEPGLTEEEAAEKAIEALKEAFPDKEIVIDSVEVKEESAGG [r13_884_TrMRF] | -0.0489 ± 0.064 kcal/mol | 0.41 ± 0.11 kcal/mol | 0.217 ± 0.11 kcal/mol
SAGGSAGGTIMIQFPDMDSPEEAIDQAEFFINEFMKQGNPGKPIKVTIQDPKNGQQQTFEIPLESAGGSAGG [r6_238_TrROS] | -0.935 ± 0.49 kcal/mol | 0.244 ± 0.16 kcal/mol | -0.114 ± 0.16 kcal/mol
SAGGMPKDAPTTDLTITEIVTEPDPNSDTYIARVTTRLPDGTEIVYTLPIPADTTEEEVVERAKELLSSAGG [r13_578_JUSTAS] | 1.78 ± 0.035 kcal/mol | 2.307 ± 0.018 kcal/mol | 2.12 ± 0.077 kcal/mol
SAGGSAGGSAGGAVFKTPDGTTLTLLPDGTVVVTEYSPDGVPLRVETRTMTAADIAAAASAGGSAGGSAGGS [r10_874_JUSTAS] | -0.022 ± 0.12 kcal/mol | 1.5 ± 0.088 kcal/mol | 1.01 ± 0.085 kcal/mol
SAGGSAMPILTDTVYEIPVDRSPDETEEEIKEYLKELLLKKLPPGTEVKLEVKFDPETGTVTVKVVSAGGSA [r15_739_JUSTAS] | 1.96 ± 0.12 kcal/mol | 0.972 ± 0.037 kcal/mol | 1.58 ± 0.12 kcal/mol
SAGGSAGGSAGGMEEIRELLEKAKKEGLESITVTVNDPAEATEVRAYAEEKGIPVTINASAGGSAGGSAGGS [r10_307_JUSTAS] | 0.415 ± 0.048 kcal/mol | -1.01 ± 0.56 kcal/mol | -0.0348 ± 0.16 kcal/mol
SAGGSAGGSAMDVFTAALNNKELEEAIKKASPDEKEIEIELPGGKKIRIFRTDDGGYIFEPSAGGSAGGSAG [r3_124_TrMRF] | 1.8 ± 0.055 kcal/mol | 1.32 ± 0.11 kcal/mol | 1.52 ± 0.11 kcal/mol
SAGGSAGGSAGMVLVFDKKTGELYLYDKNGKLVAKFKVEGAEEVVVLVFDPDTNELKLVPSAGGSAGGSAGG [r17_413_TrROS_Hall] | 2.49 ± 0.049 kcal/mol | 3.68 ± 0.037 kcal/mol | 3.4 ± 0.065 kcal/mol
SAGGSAGGSAGKHTFNIKDIEIKEVVPSNNYYVVRIEMTFPDGKEHKFTFYFPPGDPITLSAGGSAGGSAGG [r11_211_TrROS] | 1.97 ± 0.055 kcal/mol | 2.87 ± 0.085 kcal/mol | 2.53 ± 0.14 kcal/mol
SAGGSAGGSAGGGSMPVKEEVIVEVDPTEVPVTLVTTTVVKTYPDGSVEETVTVEVKLVSAGGSAGGSAGGS [r10_598_JUSTAS] | 0.818 ± 0.085 kcal/mol | 0.281 ± 0.059 kcal/mol | 0.777 ± 0.18 kcal/mol
SAGNPPVTITITINPFRHGDEPMYHVKIKNPGGKEREIPFPPDEFKEQIENEFPNIDEIEVEPMRLPPGSAG [r5_25_TrROS] | 0.207 ± 0.14 kcal/mol | 0.615 ± 0.29 kcal/mol | 0.408 ± 0.49 kcal/mol
SAGGGMSGKAISEEEIEALIKEEAEKRGLKIEIKEITRPPGTVTVTVKITEGDSVTEKTIDFPILPEPSAGG [r13_652_JUSTAS] | 1.54 ± 0.039 kcal/mol | 1.64 ± 0.054 kcal/mol | 1.59 ± 0.06 kcal/mol

— the supplement of paper PMC12764529
